Experimental data: IntAct's records for PubMed 31515488

B1: Glutathione S-transferase Mu 5 (Homo sapiens), P46439 (parent)
chain: MPMTLGYWDIRGLAHAIRLLLEYTDSSYVEKKYTLGDAPDYDRSQWLNEKFKLGLDFPNLPYLIDGAHKITQSNAILRYIARKHNLCGETEEEKIRVDILENQVMDNHMELVRLCYDPDFEKLKPKYLEELPEKLKLYSEFLGKRPWFAGDKITFVDFLAYDVLDMKRIFEPKCLDAFLNLKDFISRFEGLKKISAYMKSSQFLRGLLFGKSATWNSK
partner: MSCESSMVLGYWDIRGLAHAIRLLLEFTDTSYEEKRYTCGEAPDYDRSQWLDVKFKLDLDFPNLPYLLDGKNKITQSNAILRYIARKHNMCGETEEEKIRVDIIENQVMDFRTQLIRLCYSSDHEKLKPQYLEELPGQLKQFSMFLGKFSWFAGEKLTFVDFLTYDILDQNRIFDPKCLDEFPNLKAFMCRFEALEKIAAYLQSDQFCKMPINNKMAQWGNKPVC
B2: Zinc finger protein Aiolos (Homo sapiens), Q9UKT9 (parent)
chain: MEDIQTNAELKSTQEQSVPAESAAVLNDYSLTKSHEMENVDSGEGPANEDEDIGDDSMKVKDEYSERDENVLKSEPMGNAEEPEIPYSYSREYNEYENIKLERHVVSFDSSRPTSGKMNCDVCGLSCISFNVLMVHKRSHTGERPFQCNQCGASFTQKGNLLRHIKLHTGEKPFKCHLCNYACQRRDALTGHLRTHSVEKPYKCEFCGRSYKQRSSLEEHKERCRTFLQSTDPGDTASAEARHIKAEMGSERALVLDRLASNVAKRKSSMPQKFIGEKRHCFDVNYNSSYMYEKESELIQTRMMDQAINNAISYLGAEALRPLVQTPPAPTSEMVPVISSMYPIALTRAEMSNGAPQELEKKSIHLPEKSVPSERGLSPNNSGHDSTDTDSNHEERQNHIYQQNHMVLSRARNGMPLLKEVPRSYELLKPPPICPRDSVKVINKEGEVMDVYRCDHCRVLFLDYVMFTIHMGCHGFRDPFECNMCGYRSHDRYEFSSHIARGEHRALLK
partner: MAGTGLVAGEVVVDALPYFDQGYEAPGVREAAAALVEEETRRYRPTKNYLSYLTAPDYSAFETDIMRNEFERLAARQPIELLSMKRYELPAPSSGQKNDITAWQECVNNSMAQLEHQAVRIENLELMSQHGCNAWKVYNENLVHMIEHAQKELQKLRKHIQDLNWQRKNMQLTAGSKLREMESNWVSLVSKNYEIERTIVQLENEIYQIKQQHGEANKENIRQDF
B3: WASH complex subunit 3 (Homo sapiens), Q9Y3C0 (parent)
chain: MDEDGLPLMGSGIDLTKVPAIQQKRTVAFLNQFVVHTVQFLNRFSTVCEEKLADLSLRIQQIETTLNILDAKLSSIPGLDDVTVEVSPLNVTSVTNGAHPEATSEQPQQNSTQDSGLQESEVSAENILTVAKDPRYARYLKMVQVGVPVMAIRNKMISEGLDPDLLERPDAPVPDGESEKTVEESSDSESSFSD
partner: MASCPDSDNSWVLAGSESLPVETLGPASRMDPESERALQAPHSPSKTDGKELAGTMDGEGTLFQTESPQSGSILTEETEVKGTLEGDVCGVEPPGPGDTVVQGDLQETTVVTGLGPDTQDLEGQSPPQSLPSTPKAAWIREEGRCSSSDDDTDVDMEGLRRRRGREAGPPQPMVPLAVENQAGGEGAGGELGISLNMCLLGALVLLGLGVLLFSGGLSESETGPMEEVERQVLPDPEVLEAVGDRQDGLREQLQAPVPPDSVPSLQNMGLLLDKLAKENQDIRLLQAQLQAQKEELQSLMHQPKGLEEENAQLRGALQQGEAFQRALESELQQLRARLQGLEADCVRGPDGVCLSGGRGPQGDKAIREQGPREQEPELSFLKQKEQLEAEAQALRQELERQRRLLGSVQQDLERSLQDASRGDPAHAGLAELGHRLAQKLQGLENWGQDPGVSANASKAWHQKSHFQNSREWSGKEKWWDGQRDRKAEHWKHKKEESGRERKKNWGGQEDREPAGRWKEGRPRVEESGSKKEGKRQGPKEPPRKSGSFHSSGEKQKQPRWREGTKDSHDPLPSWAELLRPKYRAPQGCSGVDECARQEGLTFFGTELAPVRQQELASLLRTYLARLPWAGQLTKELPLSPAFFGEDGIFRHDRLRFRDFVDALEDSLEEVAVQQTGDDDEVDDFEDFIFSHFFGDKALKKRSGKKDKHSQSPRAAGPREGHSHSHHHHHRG
B4: Zinc finger protein Aiolos (Homo sapiens), Q9UKT9 (parent)
chain: B2 chain
partner: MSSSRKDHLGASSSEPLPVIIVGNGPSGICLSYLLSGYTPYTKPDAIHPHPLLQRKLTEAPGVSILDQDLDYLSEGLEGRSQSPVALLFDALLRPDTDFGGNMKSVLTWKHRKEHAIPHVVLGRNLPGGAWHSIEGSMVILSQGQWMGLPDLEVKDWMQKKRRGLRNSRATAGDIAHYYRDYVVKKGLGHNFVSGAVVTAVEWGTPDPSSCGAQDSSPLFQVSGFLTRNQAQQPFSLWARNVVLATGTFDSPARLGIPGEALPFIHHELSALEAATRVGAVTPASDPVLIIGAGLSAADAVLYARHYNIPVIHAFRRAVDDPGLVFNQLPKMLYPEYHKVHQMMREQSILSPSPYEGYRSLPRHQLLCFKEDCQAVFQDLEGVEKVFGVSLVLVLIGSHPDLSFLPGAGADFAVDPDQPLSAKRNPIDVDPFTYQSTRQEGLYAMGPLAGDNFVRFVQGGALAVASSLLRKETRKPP
B5: Glutathione S-transferase omega-2 (Homo sapiens), Q9H4Y5 (parent)
chain: MSGDATRTLGKGSQPPGPVPEGLIRIYSMRFCPYSHRTRLVLKAKDIRHEVVNINLRNKPEWYYTKHPFGHIPVLETSQCQLIYESVIACEYLDDAYPGRKLFPYDPYERARQKMLLELFCKVPHLTKECLVALRCGRECTNLKAALRQEFSNLEEILEYQNTTFFGGTCISMIDYLLWPWFERLDVYGILDCVSHTPALRLWISAMKWDPTVCALLMDKSIFQGFLNLYFQNNPNAFDFGLC
B6: Ribonuclease inhibitor (Homo sapiens), P13489 (parent)
chain: MSLDIQSLDIQCEELSDARWAELLPLLQQCQVVRLDDCGLTEARCKDISSALRVNPALAELNLRSNELGDVGVHCVLQGLQTPSCKIQKLSLQNCCLTGAGCGVLSSTLRTLPTLQELHLSDNLLGDAGLQLLCEGLLDPQCRLEKLQLEYCSLSAASCEPLASVLRAKPDFKELTVSNNDINEAGVRVLCQGLKDSPCQLEALKLESCGVTSDNCRDLCGIVASKASLRELALGSNKLGDVGMAELCPGLLHPSSRLRTLWIWECGITAKGCGDLCRVLRAKESLKELSLAGNELGDEGARLLCETLLEPGCQLESLWVKSCSFTAACCSHFSSVLAQNRFLLELQISNNRLEDAGVRELCQGLGQPGSVLRVLWLADCDVSDSSCSSLAATLLANHSLRELDLSNNCLGDAGILQLVESVRQPGCLLEQLVLYDIYWSEEMEDRLQALEKDKPSLRVIS
B7: Retinoic acid receptor beta (Homo sapiens), P10826-2 (parent)
chain: MFDCMDVLSVSPGQILDFYTASPSSCMLQEKALKACFSGLTQTEWQHRHTAQSIETQSTSSEELVPSPPSPLPPPRVYKPCFVCQDKSSGYHYGVSACEGCKGFFRRSIQKNMIYTCHRDKNCVINKVTRNRCQYCRLQKCFEVGMSKESVRNDRNKKKKETSKQECTESYEMTAELDDLTEKIRKAHQETFPSLCQLGKYTTNSSADHRVRLDLGLWDKFSELATKCIIKIVEFAKRLPGFTGLTIADQITLLKAACLDILILRICTRYTPEQDTMTFSDGLTLNRTQMHNAGFGPLTDLVFTFANQLLPLEMDDTETGLLSAICLICGDRQDLEEPTKVDKLQEPLLEALKIYIRKRRPSKPHMFPKILMKITDLRSISAKGAERVITLKMEIPGSMPPLIQEMLENSEGHEPLTPSSSGNTAEHSPSISPSSVENSGVSQSPLVQ
partner: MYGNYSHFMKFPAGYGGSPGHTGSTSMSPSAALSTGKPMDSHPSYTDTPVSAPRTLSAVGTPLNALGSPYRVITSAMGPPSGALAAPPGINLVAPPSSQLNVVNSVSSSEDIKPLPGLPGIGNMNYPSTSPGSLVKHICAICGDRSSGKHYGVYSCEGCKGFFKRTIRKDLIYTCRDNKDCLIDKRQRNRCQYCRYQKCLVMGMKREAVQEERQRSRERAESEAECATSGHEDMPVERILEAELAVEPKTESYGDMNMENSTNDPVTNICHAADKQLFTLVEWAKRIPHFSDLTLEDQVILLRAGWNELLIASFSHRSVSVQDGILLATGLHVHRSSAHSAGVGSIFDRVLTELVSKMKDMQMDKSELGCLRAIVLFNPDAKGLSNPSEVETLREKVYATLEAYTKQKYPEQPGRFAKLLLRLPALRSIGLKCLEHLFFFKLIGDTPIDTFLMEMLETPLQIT
B8: Hyaluronan mediated motility receptor (Homo sapiens), O75330 (parent)
chain: MSFPKAPLKRFNDPSGCAPSPGAYDVKTLEVLKGPVSFQKSQRFKQQKESKQNLNVDKDTTLPASARKVKSSESKESQKNDKDLKILEKEIRVLLQERGAQDRRIQDLETELEKMEARLNAALREKTSLSANNATLEKQLIELTRTNELLKSKFSENGNQKNLRILSLELMKLRNKRETKMRGMMAKQEGMEMKLQVTQRSLEESQGKIAQLEGKLVSIEKEKIDEKSETEKLLEYIEEISCASDQVEKYKLDIAQLEENLKEKNDEILSLKQSLEENIVILSKQVEDLNVKCQLLEKEKEDHVNRNREHNENLNAEMQNLKQKFILEQQEREKLQQKELQIDSLLQQEKELSSSLHQKLCSFQEEMVKEKNLFEEELKQTLDELDKLQQKEEQAERLVKQLEEEAKSRAEELKLLEEKLKGKEAELEKSSAAHTQATLLLQEKYDSMVQSLEDVTAQFESYKALTASEIEDLKLENSSLQEKAAKAGKNAEDVQHQILATESSNQEYVRMLLDLQTKSALKETEIKEITVSFLQKITDLQNQLKQQEEDFRKQLEDEEGRKAEKENTTAELTEEINKWRLLYEELYNKTKPFQLQLDAFEVEKQALLNEHGAAQEQLNKIRDSYAKLLGHQNLKQKIKHVVKLKDENSQLKSEVSKLRCQLAKKKQSETKLQEELNKVLGIKHFDPSKAFHHESKENFALKTPLKEGNTNCYRAPMECQESWK
B9: Transcription factor 12 (Homo sapiens), Q99081 (parent)
chain: MNPQQQRMAAIGTDKELSDLLDFSAMFSPPVNSGKTRPTTLGSSQFSGSGIDERGGTTSWGTSGQPSPSYDSSRGFTDSPHYSDHLNDSRLGAHEGLSPTPFMNSNLMGKTSERGSFSLYSRDTGLPGCQSSLLRQDLGLGSPAQLSSSGKPGTAYYSFSATSSRRRPLHDSAALDPLQAKKVRKVPPGLPSSVYAPSPNSDDFNRESPSYPSPKPPTSMFASTFFMQDGTHNSSDLWSSSNGMSQPGFGGILGTSTSHMSQSSSYGNLHSHDRLSYPPHSVSPTDINTSLPPMSSFHRGSTSSSPYVAASHTPPINGSDSILGTRGNAAGSSQTGDALGKALASIYSPDHTSSSFPSNPSTPVGSPSPLTGTSQWPRPGGQAPSSPSYENSLHSLQSRMEDRLDRLDDAIHVLRNHAVGPSTSLPAGHSDIHSLLGPSHNAPIGSLNSNYGGSSLVASSRSASMVGTHREDSVSLNGNHSVLSSTVTTSSTDLNHKTQENYRGGLQSQSGTVVTTEIKTENKEKDENLHEPPSSDDMKSDDESSQKDIKVSSRGRTSSTNEDEDLNPEQKIEREKERRMANNARERLRVRDINEAFKELGRMCQLHLKSEKPQTKLLILHQAVAVILSLEQQVRERNLNPKAACLKRREEEKVSAVSAEPPTTLPGTHPGLSETTNPMGHM
partner: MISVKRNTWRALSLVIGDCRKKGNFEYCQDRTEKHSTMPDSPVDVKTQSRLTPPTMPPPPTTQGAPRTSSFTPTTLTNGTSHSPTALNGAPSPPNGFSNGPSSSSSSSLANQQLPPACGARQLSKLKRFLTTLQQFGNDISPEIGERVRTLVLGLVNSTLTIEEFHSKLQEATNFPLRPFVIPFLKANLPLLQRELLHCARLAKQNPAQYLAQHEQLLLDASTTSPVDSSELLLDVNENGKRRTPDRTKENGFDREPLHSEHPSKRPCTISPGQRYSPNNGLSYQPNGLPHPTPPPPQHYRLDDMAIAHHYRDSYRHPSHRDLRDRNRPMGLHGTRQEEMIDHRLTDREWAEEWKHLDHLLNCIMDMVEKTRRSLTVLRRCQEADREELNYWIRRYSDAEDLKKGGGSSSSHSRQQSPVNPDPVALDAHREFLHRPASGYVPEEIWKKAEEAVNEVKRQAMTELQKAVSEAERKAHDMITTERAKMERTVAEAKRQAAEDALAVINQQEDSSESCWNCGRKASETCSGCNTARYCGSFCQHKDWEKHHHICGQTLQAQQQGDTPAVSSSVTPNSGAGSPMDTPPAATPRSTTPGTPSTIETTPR

Variants of: B1
Settings: with gstm3_human GSTM3, P21266

effect of a mutation on the interaction	Variant
with no effect	L179P

Variants of: B2
Settings: with spf27_human BCAS2, O75934

effect of a mutation on the interaction	Variant
with no effect	N119D
with no effect	A24V

Variants of: B3
Settings: with pbip1_human PBXIP1, Q96AQ6

effect of a mutation on the interaction	Variant
with no effect	F44L

Variants of: B4
Settings: with osgi1_human OSGIN1, Q9UJX0

effect of a mutation on the interaction	Variant
with no effect	N119D
with no effect	A24V

Variants of: B5
Settings: with ap2a_human TFAP2A

effect of a mutation on the interaction	Variant
with no effect	N142D

Variants of: B6
Settings: with sdcb1_human SDCBP

effect of a mutation on the interaction	Variant
disrupting interaction strength	R110C

Variants of: B7
Settings: with rxrg_human RXRG

effect of a mutation on the interaction	Variant
with no effect	V83I

Variants of: B8
Settings: with morn4_human MORN4, Q8NDC4
morn4_human MORN4, Q8NDC4, sequence (Q8NDC4 whole entry): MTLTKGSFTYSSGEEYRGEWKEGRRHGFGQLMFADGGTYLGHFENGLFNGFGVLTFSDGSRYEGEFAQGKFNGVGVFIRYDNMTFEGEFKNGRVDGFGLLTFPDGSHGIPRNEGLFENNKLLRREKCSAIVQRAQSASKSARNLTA

effect of a mutation on the interaction	Variant
with no effect	S468G
with no effect	V368A

Variants of: B9
Settings: with mtg8_human RUNX1T1, Q06455

effect of a mutation on the interaction	Variant
with no effect	I11M
